Measured values published in patent publication US20090214553A1.

Target: human CTLA-4-murine Ig fusion protein (human) (UniProt P16410)
Assay: sandwich ELISA on the CTLA4-muIg standard with the blocking pair BNI3 (coated) and biotinylated AS-33 (detecting)

- limit of sensitivity: 6.25 ng/mL
Substance: BNI3, CTLA-4 blocking mouse IgG2a mAb (antibody)
